The results in this text go back to publication doi:10.1101/361857 (bioRxiv, 2018).

Experiment in all cases: cross-linking
The target of assay [1] is T1, JNK1 β-1 isoform lacking 20 amino acids from the C-terminus (JNK1 ΔC20) (human, UniProt P45983-3 1-364).
The target in the next assay is ERK2 (human, UniProt P28482 1-360).
Assay [2] concerns the target T1, JNK1 β-1 isoform lacking 20 amino acids …. The source holds these as a separate data set.

Like-named read-outs stand apart in the source and are kept apart here. Ends that are not written are not given here. * marks the point of attachment. diazirine‑based cleavable photocrosslinker = not defined here; Biotin = O=C1N[C@H]2[C@H](CS[C@H]2CCCCC(=O)*)N1

Sequence of ERK2 (P28482 whole entry, canonical isoform): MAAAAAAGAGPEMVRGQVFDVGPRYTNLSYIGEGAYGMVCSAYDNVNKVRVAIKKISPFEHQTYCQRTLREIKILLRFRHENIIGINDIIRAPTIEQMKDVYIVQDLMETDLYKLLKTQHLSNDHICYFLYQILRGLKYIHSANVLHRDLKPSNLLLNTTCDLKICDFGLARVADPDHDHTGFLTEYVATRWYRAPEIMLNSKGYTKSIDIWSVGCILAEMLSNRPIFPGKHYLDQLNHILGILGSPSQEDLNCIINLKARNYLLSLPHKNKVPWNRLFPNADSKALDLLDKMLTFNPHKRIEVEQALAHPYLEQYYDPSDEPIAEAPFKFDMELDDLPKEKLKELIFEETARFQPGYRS

As to Biotin-C(diazirine‑based cleavable photocrosslinker)KRKALKLNFANW (reading uncertain) [MKK4 D-motif peptide II], the binding result (in assay [1]; with ERK2) was “binds” throughout.
For Biotin-C(diazirine‑based cleavable photocrosslinker)GKRKALKLNFANW (reading uncertain) [MKK4 D-motif peptide I], the binding result (in assay [1]; with ERK2) was “binds” in each case.
Biotin-C(diazirine‑based cleavable photocrosslinker)QGKRKALKLNFANW (reading uncertain) [MKK4 D-motif peptide wt (wild-type)]: the binding result in assay [2] is given as “binds”.
